Laboratory results as given in patent US6719976B1, “Peptide-based immunotherapeutic agent for treating allergic diseases” (Meiji Milk Products Co., Ltd., priority 1996, dated 2004).

How the values were obtained:
[1] = tested on: rabbit anti-d epitope IgG; assay: Positive control reactivity with rabbit anti-d epitope IgG; format: binding; details: blank: 112
Description: (§1) The six multi-epitope peptides (C.A.#1 through C.A.#6) obtained in Example 6 were dissolved in 0.2 M acetate buffer solution (pH 4.5). The solution was dispensed in quantities of 0.1 ml/well in a black plate (manufactured by Dainihon Pharmaceutical Co., Ltd.) then allowed to stand at 4° C. overnight. After the antigen solution was removed, the wells were washed three times with a washing solution and the serum (4-fold dilution) from 29 patients with cedar pollinosis and healthy subjects were each added to separate wells. The system was then reacted at 37° C. for 4 hours. After the sera were removed, the wells were washed three times with a washing solution then reacted with anti-human IgE antibody (made by Pharmacia Inc.) at room temperature overnight. After washing three times with a washing solution, a substrate solution containing 0.1 mM 4-methylumbelliferyl-, β-D-galacto-pyranoside/0.01 M phosphate buffer (pH 7.0), 0.1 M NaCl, 1 mM MgCl2, 0.1% NaN, and 0.1% BSA was added, and the solution was incubated at 37° C. for 2 hours. A solution of 0.1 M glycine/NaOH (pH 10.3) was added to the wells to terminate the reaction. Fluorescent intensity was measured using a fluorophotometer (Labsystems). For positive control to each multi-epitope peptide, biotin-labeled rabbit anti-d epitope IgG and peroxidase-labeled streptoavidin (made by Pierce Inc.) were reacted.

[2] = tested on: CBF1 mice; assay: Inducing immune tolerance by administering cedar pollen allergen to mice; format: in vivo; details: 300 μg/mouse s.c. twice, then sensitized with 100 μg Cry j 1 + Alum; compared to PBS control group
Description: The detailed mechanism in hyposensitization therapy by which cedar pollen allergen is administered for the treatment is yet unknown. To clarify this mechanism, tests were conducted using mice. Cedar pollen allergen Cry j 1 was subcutaneously administered twice to five CBF1 female mice at intervals of 5 days in a dose of 300 μg/mouse. For control, the same dose of PBS was subcutaneously given to five other female mice. Five days later, the animals were sensitized by subcutaneous injection of 100 μg Cry j 1 together with Alum adjuvant. Ten days later, the lymphocytes were isolated to pool them as the lymphocytes from the control group and as the lymphocytes from the Cry j 1-administered mice. Cry j 1 was added to the pooled lymphocytes in doses of 0, 50 and 150 μg/ml. Incubation was performed for 3 days to collect the culture supernatant. In the control (PBS-administered) mouse group, IL-2 production increased as the concentration of Cry j 1 increased from 0 to 50 and 150 μg/ml. […] The results verify that currently implemented hyposensitization therapy using the cedar pollen allergen is efficacious.

[3] = tested on: spleen cells of CBF1 mice immunized with rCry j 2; assay: Identifying T cell epitopes in CBF1 mice (spleen cell [3H] thymidine uptake); format: cell-based, mouse; details: peptides 0.115 μM; Cry j 1 50 μg/ml; rCry j 2 0.3 μg/ml
Description: Eight-week-old male CBF1 mice were boosted (i.p.) three times with 10 μg of recombinant Cry j 2 (rCry j 2) at intervals of two weeks together with an adjuvant (Imject Alum, manufactured by Pierce Inc.). One week after the final booster, the spleen cells (5×10^6 cells) were cultured together with each of the 74 kinds of Cry j 2 overlapping peptides (0.115 μM) consisting of 15 residues in 0.2 ml RPMI medium (supplemented with 10% FCS, 2 mM L-glutamine, 50 U/ml penicillin and 50 μg/ml streptomycin) in each well of a 96-well plate(manufactured by Falcon Inc.). For control, the reactivities with PBS, 50 μg/ml of Cry j 1, and 0.3 μg/ml of rCry j 2 were also observed. Each reagent was distributed in three wells and incubated at 37° C. for 3 days in 5% CO2. For the last 6 hours, pulse labeling was performed with 0.5 μCi/well of [^3H] thymidine. The cells were collected on a glass filter using a cell harvester (Inoteck, Bertold Japan Co., Ltd.). After drying, the level of [^3H] thymidine taken up into the cells was determined using a liquid scintillation counter (TRI-CARB 4530, Packard Japan KK).

[4] = tested on: human IgE antibody; assay: Reactivity of the multi-epitope peptides with human IgE antibody (fluorescence plate assay); format: binding
Description: as §1

[5] = tested on: T cell line of each patient specifically recognizing Cry j 1 or Cry j 2; assay: T cell line proliferation response to overlapping peptides ([3H] thymidine uptake); format: cell-based, human; details: 18 patients with cedar pollinosis; stimulation index 2 or more
Description: Peripheral lymphocytes from 18 patients with cedar pollinosis were stimulated by cedar pollen allergen Cry j 1 or Cry j 2to establish the T cell line of each patient capable of specifically recognizing the respective allergen.
A mixture of 5×10^4 cells of the autologous B cell line treated with mitomycin C, 2 μM of an overlapping peptide, and 2×10^4 cells of the T cell line was incubated for 2 days in RPMI-1640 medium supplemented with 0.2 ml of 15% serum on a 96-well culture plate. After 0.5 μCi [^3H] thymidine was added to the medium, incubation was continued for a further 18 hours. After the cells were harvested on a glass filter using a cell harvester, the level of [^3H] thymidine taken up into the cells was determined with a liquid scintillation counter. If the stimulation index is 2 or more, we consider that the added peptide is recognized as an antigenic peptide. The stimulation index means a value obtained by dividing the level of [^3H] thymidine taken up into the cells when the peptide was added by the level of [^3H] thymidine taken up into the cells when no peptide was added.
The HLA class II type is considered to vary in every patient. It is thus assumed that a T cell epitope to be recognized would vary depending on the HLA class II type. For this reason, the antigenic peptide that the patients recognized was mapped for the individual patient. […] On the allergen molecule, there are both regions that can be readily recognized and regions that can hardly be recognized, as a T cell epitope, depending on individuals. Moreover, since the proliferation rate of T cells varies depending on a T cell epitope, the epitope map alone makes it difficult to determine what antigenic peptide should be chosen to design the multi-epitope peptide.

B1: Cry j 1: major cedar pollen allergen, 353 amino acids, extracted and purified from cedar pollen (protein)
chain: DNPIDSCWRGDSNWAQNRMKLADCAVGFGSSTMGGKGGDLYTVTNSDDDPVNPAPGTLRYGATRDRPLWIIFSGNMNIKLKMPMYIAGYKTFDGRGAQVYIGNGGPCVFIKRVSNVIIHGLYLYGCSTSVLGNVLINESFGVEPVHPQDGDALTLRTATNIWIDHNSFSNSSDGLVDVTLTSTGVTISNNLFFNHHKVMLLGHDDAYSDDKSMKVTVAFNQFGPNCGQRMPRARYGLVHVANNNYDPWTIYAIGGSSNPTILSEGNSFTAPNESYKKQVTIRIGCKTSSSCSNWVWQSTQDVFYNGAYFVSSGKYEGGNIYTKKEAFNVENGNATPQLTKNAGVLTCSLSKRC
- fluorescent intensity with rabbit anti-d epitope peptide IgG [1]: 230
- IL-2 production of lymphocytes restimulated with Cry j 1 [2]: obviously reduced
- reactivity of spleen cells ([3H] thymidine uptake) [3]: did not react
- fluorescent intensity (human IgE reactivity) ([4]; 14 subjects of 29): ≥ 100
- fluorescent intensity (human IgE reactivity) ([4]; five subjects of 29): nine
- fluorescent intensity (human IgE reactivity) ([4]; four subjects of 29): ≥ 10
- fluorescent intensity (human IgE reactivity) ([4]; six subjects of 29): ≥ 1,000
- number of T cell epitopes on the molecule that each patient recognized, average [5]: 9.8
